Biological target: HLA-DR antigen expressed on human cells (L428, KM-H2, B cells of PBMC, other cancer cell lines, tumour tissue) (human)
Assay: cell-based or functional assay

decrease in abundance of B cells (CD19 positive cells) among live PBMC, relative to isotype control (1 μg/ml antibody, 2 h, flow cytometry): ~60%
B1: BP1206 chimeric antibody (human Fc chimeric recombinant antibody designed based on the antibody LN-3) (antibody, human IgG1, kappa, L234A L235A, V domains shown)
VH: QVHLKQSGPGLVQPSQSLSITCTVSGFSLTRFGVHWIRQSPGKSLEWLGVTWSGGTTVYNGAFISRLSITKDISKSQVFFKMNSLQVDDTGIYYCARAYYAMDYWGQGTSVTVSS
VL: DVQMTQSPSYLAASPGETITIHCRASESIGKYLAWYQKKPGRSNRLLIYSGSTLQSGIPSRFSGSGSGTDFTLTVSSLEPEDFAMYYCQHHNDYPWTFGGGTKVEIKR

Reference: WO2020171171A1 (dated 2020)
